Numbering of substitutions follows the chain as printed.
B1: ADI-21010 (antibody, V domains shown)
VH: EVQLVESGGGVVQPGRSLRLSCAASGFSFSTYGMHWVRQAPGKGLEWVGVIWYDETTKYYADSVKGRFSISRDNSKNMVYVQMNSLRADDTALYYCAREVWGGVFDIWGQGTTVTVSS
VL: DIQMTQSPATLSASVGDRVTITCRASQNIVTWLAWYQQKPGKAPNLLIYKASSLESGVPSRFSGSGSGTEFTLTISSLQPDDFATYYCQHYNSYSGAFGQGTKVDIK
B2: ADI-14401 (antibody, V domains shown)
VH: QVQLVQSGGGLVKPGGSLRLSCAASGFTFSSYSMHWVRQAPGKGLEWVSSISASSSYLNYADSVKGRFTISRDNAKKSLYLQLNTLRADDTAVYYCAREDHDSGTYYLNWFDPWGQGTLVTVSS
VL: QSVVTQPPSVSGAPGQRVTISCTGSSSNIGAGYDVHWYQQFPGTGPKLLIYGNSHRPSGVPDRFSGSKSGPSASLAITGLQAEDEADYYCQSYDSSLSGYVFGTGTKVTVL
notes: also called Ab 67
B3: ADI-14420 (antibody, V domains shown)
VH: EVQLVESGGVVVQPGGSLRLSCAASGFNFDDYAMHWVRQAPGKGLEWVSLISWDGGNTYYSDSVKGRFTISRDNGKNSLYLQMNSLRAEDTALYYCAKDIDRYSGYDYVFHYWGQGTLVTVSS
VL: DIRLTQSPSTLSAYVGDRVTITCRASQSISSWLAWYQQKPGKAPKLLIYKASSLESGVPSRFTGSGSGTEFTLTISGLQPDDFATYYCQQYNSYSTFGGGTKVDIK
notes: also called Ab 86
B4: ADI-14415 (antibody, V domains shown)
VH: EVQLVESGPGLVKPSETLSLTCTVSGGSISNYYWTWIRQPPGEGLEWIGYIYYTGSTNYNPSLKNRVTISVDTPKNQFSLKLNSVTAADTAVYYCARGWGYSYGYESYYNGLDVWGQGTTVTVSS
VL: DIQLTQSPSFLSASVGDRVTITCRASQGISSYLAWYQLKPGKAPKLLIYAAATLETGVPSRFSGSGSGTEFTLTISGLQPEDFATYYCQQLNSFPFTFGPGTKVEIK
notes: also called Ab 81
B5: ADI-14571 (antibody, V domains shown)
VH: QVQLVQSGAEVKKPGSSVKVSCKASGGTFSTYTITWVRQAPGQGLEWMGRIVPIFGVVNNAQKFLGRLTITADKSTSTAYMELSSLRSEDTAVYYCARIPCSGNCQDYYYGMDVWGQGTTVTVSS
VL: B4 VL with A34V, L38Q, A52S, E55Q, T56S, G77S, S93N, F94Y, F96P, E105D
B6: ADI-14399 (antibody, V domains shown)
VH: EVQLLESGPGLVKPSQTLSLTCAVSGGSINSGRYSWSWIRQPPGKGLEWIGYIYYSGTTYYNPSLESRVTISRDTSKNQFSLNLSSVTAADTAVYYCARTNSADSYASGSHYIRPQYFDFWGQGTLVTVSS
VL: DIQLTQSPATLSLSPGERATLSCRASQSVSSYLAWYQQKPGQAPRLLIYGASNRATGIPARFSGSGSGTDFTLTISRLEPEDFAVYYCQQRSNWLTFGGGTKVEIK
notes: also called Ab 65
B7: ADI-21006 (antibody, V domains shown)
VH: QVTLKESGPTLVKPTQTLTLTCTFSGFSLSISGVGVGWIRQPPGKALEWLAVMYWDDDKRYSPSLKTRLTITKDTSKNQVVLTMTNMAPVDTAIYYCAHLWFGEAAFDPWGQGTLVTVSS
VL: EIVLTQSPLSLPVTLRQTASISCRSGQSLLYSDGNTYLNWFQQRPGQSPRRLISIVSKRDSGVPDRFSGSGSGTDFTLKISRVEAEDVGVYYCMQGTHWPYTFGQGTKVEIK
B8: ADI-14408 (antibody, V domains shown)
VH: QVQLVQSGPALVKTTQTLTLTCTFSGFSLTTSGMCVSWIRQPPGKALEWLARIDWDDDKYYSTSLKTRLTISKDTSKNQVVLTLTNVDPVDTATYYCARMQKYDSSGYYLHYFDSWGQGTLVTVSS
VL: DIRLTQSPSSLSASVGDRVTIACRASQSISSYLNWYQQKPGKSPKVLIYAASILQTGVPSRFSGSGSGTDFTLTISSLQPEDFATYYCQQSYSINQYTFGQGTKVEIK
notes: also called Ab 74
B9: ADI-14576 (antibody, V domains shown)
VH: QVQLVQSGAEVKKPGASVKVSCKASGYTFTSYGISWVRQAPGQGLEWMGWISAYNGNTNYAQKLQGRVTMTTDTSTSTAYMELRSLRSDDTAVYYCARDPPVIAAGDFQHWGQGTLVTVSS
VL: DIVLTQSPLSLPVTLGQPASISCRSSQSLVHSDGNTYLNWFQQRPGQSPRRLIYKVSNRDSGVPDRFSGSGSGTDFTLKISRVEAEDVGVYYCMQGTHWPPDFGQGTRLEIK
B10: ADI-14411 (antibody, V domains shown)
VH: QVQLVQSGAEVKKPGASVKLSCKASGYTFTRFYIHWVRQAPGQGLEWMGIINPSGGGTSYAQNFQDRVTMTRDTSTSTVYMELSSLRSEDTAVYYCARNGYSTRSLQNNWFDPWGQGTLVTVSS
VL: ETTLTQSPSSLSASVGDRVTITCRASQSIDNYLNWYQQKPGKAPKLLIYEASSLQSGVPSRFSGSGSGTDFTLTISSLQPEDFATYYCQQTYSSLPYTFGQGTKVEIK
notes: also called Ab 77
B11: ADI-14407 (antibody, V domains shown)
VH: QVQLVQSGGGVVQPGRSLRLSCAASGFTFSSYGMHWVRQAPGKGLEWVAVIWFDGNNKEYADSVKGRFAISRDNSKNTLYLQMNSLRAEDTAVYYCARDLIPVTIFGVVNPYSYYGMDVWGQGTTVTVSS
VL: EIVMTQSPSSLSASVGDRVTITCRASQSISTYLNWYQQKPGTAPKLLIYAASSLESGVPSRLSGSGSGTEFILTISSLQREDFATYYCQQSYSTPPTFGQGTKVEIK
notes: also called Ab 73
B12: ADI-21041 (antibody, V domains shown)
VH: EVQLVESGGVVVQPGGSLRLSCAASGFTFDDYTMHWVRQAPGKGLEWVSLISWVGDTTYYADSVKGRFTISRDNSKNSLYLQMNSLRTEDTALYYCAKGGYYDGSGYYYFDYWGQGTLVTVSS
VL: DIRLTQSPSSLSASVGDRVTITCRASQSISNYLNWYQQKPGKAPKLLMYAASSLQSGVPSRFSGSGSGTDFTLTISSLQPEDFATYSCQQSYSTPYTFGQGTKVEIK
B13: ADI-14572 (antibody, V domains shown)
VH: QVQLVQSGGGLVKPGGSLRLSCAASGFTFSNAWISWVRQAPGKGLEWVGRIKSATDGGTTDYAAPVKGRFTISRDDSKNTLYLQMDSLKTEDTAVYYCTTSYPYFDWLPFSVDYWGQGTLVTVSS
VL: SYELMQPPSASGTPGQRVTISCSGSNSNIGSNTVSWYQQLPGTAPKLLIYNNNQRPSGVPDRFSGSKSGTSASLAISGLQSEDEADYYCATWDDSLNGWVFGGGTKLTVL
B14: ADI-14396 (antibody, V domains shown)
VH: EVQLVESGGGVVQPGRSLRLSCAASGFTFSSYAMHWVRQAPGKGLEWVAVISYDGSNKYYADSVKGRFTISRDNSKNTLYLQMNSLRAEDTAVYYCARELRYFDWEYGGMDVWGQGTTVTVSS
VL: EIVLTQSPSSLSASVGDRVTITCQASQDISNYLNWYQQKPGKAPKLLIYDASNLETGVPSRFSGSGSGTDFTFTISSLQPEDIATYYCQQYDNLPMYTFGQGTKLEIK
notes: also called Ab 63
B15: ADI-20977 (antibody, V domains shown)
VH: EVQLVESGGGLVQPGGSLRLSCAASGFTFTNYAMSWVRQAPGKGLEWVSGISGSGGSTYYADSVKGRFTISRDNSKNTLYLQMNSLRAEDTAVYYCAKDQGYAVVVADATRNLPPRRYGMDVWGQGTTVTVSS
VL: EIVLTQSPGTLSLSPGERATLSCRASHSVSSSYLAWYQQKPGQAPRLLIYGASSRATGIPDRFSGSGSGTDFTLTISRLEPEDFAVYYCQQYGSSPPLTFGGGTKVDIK
notes: also called Ab 230
B16: ADI-14413 (antibody, V domains shown)
VH: EVQLVESGGVVVQPGGSLRLSCAASGFNFDDYSMHWVRQAPGKGLEWVSVISWDGGITYYADSVKGRFTMSRDNGKKSLYLQMNSLRTEDTAVYYCGKDGDIYSSSSAGIDYWGQGTLVTVSS
VL: SYVLTQPPSASGTPGQRVIISCSGSSSNIGSHTVKWYQQLPGTAPKLLIDRNNQRPSGVPDRFSGPKSGTSASLAISGLQSEDEADYYCASWDDSLNGPVFGGGTQLTVL
notes: also called Ab 79
B17: ADI-14409 (antibody, V domains shown)
VH: QVQLVQSGGEVKKPGASVKVSCKASGYTFTYYGISWVRQAPGQGLEWMGWISAYNGNTNYEQKFQGRVTMTTDTSTGTAYMELRSLTSDDTAVYYCARDRIVVVTAANYYGLDVWGQGTTVTVSS
VL: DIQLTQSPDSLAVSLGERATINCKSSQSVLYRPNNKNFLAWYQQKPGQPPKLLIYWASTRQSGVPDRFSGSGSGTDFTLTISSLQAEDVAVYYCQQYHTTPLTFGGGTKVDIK
notes: also called Ab 75
B18: ADI-14414 (antibody, V domains shown)
VH: QVQLVQSGAEVKKPGSSMKVSCKASGGSFSSYGISWLRQAPGQAPEWMGGIIPIFGTINYAQKFQGRITISADESTSTVYMELSSLRIEDTAVYYCARDGRTSPRYYGWDVWGQGTTVTVSS
VL: DIRLTQSPATLSLSPGDRATLSCRASQSLYTYLSWYQQKPGQAPRLLIYDASNRATGIPARFSGSGSGTDFTLTISSLEPEDFAVYYCHYRSNWPPCTFGGGTKVDIK
notes: also called Ab 80
B19: ADI-14400 (antibody, V domains shown)
VH: QVQLVQSGGGVVQPGRSLRLSSAASGFTFSSYAMHWVRQAPGKGLEWVAVISHDGSKYYADSVKGRFTISRDNSKSTLNLQMNSLRPEDTAVYYCARGGDVRLYDDSNGYHYDTYYFDYWGQGTLVTVSS
VL: EIVLTQSPSSLSASVGDRVTITCRASQGIRNDLGWYQQKPGKAPKLLIYAASTLQSGVPSRFSGSGSGTDFTLTISSLQPEDFATYYCLQDYNYPLTFGGGTKVEIK
notes: also called Ab 66
B20: ADI-14410 (antibody, V domains shown)
VH: QVQLQQWGAGLLKPSETLSLTCAIYSGSFSGYYWSWIRQPPGKGLEWIGQINYSGSAYYTPSLKSRVTISVDTSKNQFSLKLSSVTAADTAVYYCARVRITMVQGAIVPCAIDVWGQGTTVTVSS
VL: SYELTQPPSASGTPGQRVTISCSGSSSNIESNFVYWYQQLPGTAPKLLIHRNDQRPSGVPDRFSGSKSGTSASLAISGLRSEDEADYSCAAWDDSLSGVVFGGGTKVTVL
notes: also called Ab 76

Each binder was assayed against RSV prefusion F (preF), subtype A (respiratory syncytial virus, subtype A, UniProt P03420 26-513) (assay: BLI, IgG).

| Binder | Kd | binding result |
| --- | --- | --- |
| B1 | 3.58 nM |  |
| B2 | 1.19 nM |  |
| B3 | 6.35 nM |  |
| B4 | 4.2 nM |  |
| B5 | 2.91 nM |  |
| B6 | 0.189 nM |  |
| B7 | 10.4 nM |  |
| B8 | 8.53 nM |  |
| B9 | 6.97 nM |  |
| B10 | 6.12 nM |  |
| B11 | 6.28 nM |  |
| B12 | 7.3 nM |  |
| B13 |  | no binding |
| B14 |  | no binding |
| B15 | 0.151 nM |  |
| B16 | 5.45 nM |  |
| B17 | 0.15 nM |  |
| B18 | 5 nM |  |
| B19 | 0.29 nM |  |
| B20 | 3.77 nM |  |

What follows are binders tested against T1, RSV postfusion F (postF), subtype A (respiratory syncytial virus, subtype A, UniProt P03420 26-513) (assay: BLI, IgG).
T1 construct: also called F ΔFP; Postfusion subtype A

| Binder | binding result | Kd |
| --- | --- | --- |
| B1 | no binding |  |
| B2 | no binding |  |
| B3 | no binding |  |
| B4 | no binding |  |
| B5 | no binding |  |
| B6 | no binding |  |
| B7 | no binding |  |
| B8 |  | 2.14 nM |
| B9 | no binding |  |
| B10 | no binding |  |
| B11 |  | 0.378 nM |
| B12 | no binding |  |
| B13 |  | 17 nM |
| B14 | no binding |  |
| B15 | no binding |  |
| B16 | no binding |  |
| B17 | no binding |  |
| B18 | no binding |  |
| B19 | no binding |  |
| B20 | no binding |  |

The binders below were run against RSV prefusion F (preF), subtype B (respiratory syncytial virus, subtype B) (assay: BLI, IgG).

| Binder | Kd |
| --- | --- |
| B2 | 2.17 nM |
| B3 | 4.32 nM |
| B4 | 3.51 nM |
| B6 | 0.365 nM |
| B8 | 12.8 nM |
| B9 | 19.3 nM |
| B10 | 3.92 nM |
| B11 | 11.4 nM |
| B14 | 15.5 nM |
| B16 | 2.71 nM |
| B17 | 0.289 nM |
| B18 | 3.07 nM |
| B19 | 0.451 nM |
| B20 | 17.1 nM |

From patent publication US20260258115A1 (MAPP BIOPHARMACEUTICAL, published 2026)
